Laboratory results taken from patent US20150160214A1, “Quantitation of Cellular Adhesion Dynamics Across Immobilized Receptors Under Rheological Shear Flow” (Mayo Foundation for Medical Education and Research, priority 2013, published 2015).

Legend:
platelet GPIbα = biological target: T1, platelet GPIbα (Homo sapiens, UniProt P07359); assay: Platelet adhesion to surface captured disulfide-intact A1 and RCAM A1 under shear flow (Example 2); format: cell-based
T1 construct: endogenous in cells; host or cells: platelets in citrated whole blood of normal healthy volunteer donors
Procedure: The interaction of disulfide-intact A1 and of RCAM A1 with platelets was studied by immobilizing the proteins via the 6×His-Tag on Cellix biochips in which the internal channel surface was coated with a Cu2+ chelating chemistry. A 5 μM concentration of protein was immobilized in the biochip and citrated whole blood was perfused at a shear rate of 800 s−1 (FIG. 11B). This perfusion was followed by TBS buffer and after red blood cells cleared the channel, the shear was decremented to 100 s−1 or incremented to 9000 s−1 every two minutes at logarithmic intervals. Surface bound platelets were allowed to equilibrate at a given shear rate for 50 s and a 60 s video at 24 frames per second was recorded and analyzed as described in the methods. The internal channel surface lacking immobilized A1 domain was completely inert to platelets.
At each shear rate, platelet mean pause times and mean translocation velocities were calculated from the X-Y trajectories of moving platelets as described in the methods. Approximately 1000 platelet trajectories were analyzed at each shear rate (FIGS. 11B to 11D). The mean pause times were also calculated from the pause time survival fraction obtained from the cumulative integral of the pause time distribution (FIG. 11B) (Thomas:2006). The survival fraction exponentially decreases with faster decay rates as shear increases. Fitting the survival fraction with a bi-exponential decay function results in the apparent rate constants and amplitudes as a function of shear rate (FIG. 11C).
The determination and analysis of platelet pause times and instantaneous translocation velocities over surface captured A1 and RCAM A1 was performed as previously described (Tischer:2013). Here, the inventor used the Cellix Mims Evo syringe pump controlled by VenaFluxAssay (www.cellixltd.com). Vena8™ CGS biochips were custom designed with 800 μm width by 80 μm height microchannels bonded to glass slides with a Cu^2+ chelated PEG surface serviced by Microsurfaces Inc. (www.proteinslides.com/histag.html) to which the A1 and RCAM A1 in TBS were captured by the 6×His-Tag at a total concentration of 5 μM. Citrated whole blood was obtained from the informed consent of healthy volunteer donors with approval from the Mayo Clinic Institutional Review Board and 100 μL was perfused over the surface captured A1 domains at […]. The shear was increased or decreased in a stepwise manner to measure the dynamics of platelet adhesion at high and low shear. After allowing the flow chamber to equilibrate for 50 s at each shear rate, 1 min movies were recorded at 24 frames per second in phase contrast at 200× magnification with 2×2 pixel binning on a Zeiss AxioCam Mrm camera (6.45 μm/px) attached to a Zeiss Axio Observer.D1 inverted microscope. Tracking analysis was performed using MediaCybernetics ImagePro® Premier (www.mediacy.com/index.aspx?page=IP\_Premier) The distance travelled in the direction of flow was calculated from the coordinate data for each platelet as a function of time using √{square root over ((xt−x0)^2)}, where x0 is the coordinates of a platelet on the first frame of the movie and xt is the coordinate on subsequent frames of the movie. These trajectories were differentiated into instantaneous velocities using a Savitzky-Golay algorithm (Savitzky:1964) with a five data point window size and a second order polynomial implemented into a Mathematica (www.wolfram.com/mathematica) notebook written in our lab. Trajectories were retained for statistical analysis if the platelet was present for ≧1 s and travelled a total distance greater than 1 Distance travelled in pixels (px) was converted to (μm) using 6.45 μm/px*2/200=0.0645 μm/px. Pause times were determined by the amount of time (sec) a platelets velocity was 0±4 px/s≅0±0.23 μm/s, within the noise. Data are reported as mean velocities and pause times attained by individual platelets averaged over all platelets analyzed. […]

[1] = Secondary structure contribution calculated from CD-spectra (CDNN); format: physicochemical
Procedure: Fluorescence and circular dichroism spectra of A1 and of RCAM A1 were measured to compare the basic spectroscopic properties of the two protein variants (FIG. 13). The fluorescence spectrum of native A1 has a relatively low intensity with λmax of ˜345 nm. In presence of 2 M GdnHCl the fluorescence intensity increases as the interior of the protein becomes solvent accessible and a red shift of the spectrum to ˜351 nm occurs. […] Nevertheless, RCAM A1 is still retains significant secondary structure content in solution; the distribution of which is summarized in Table 1. In the near UV, the CD of disulfide-intact A1 show a well-defined spectral banding pattern between 260 and 300 nm indicating significant tertiary structure content that is absent in RCAM A1.
Urea and GdnHCl induced unfolding of A1 and of RCAM A1 at 25° Celsius was monitored via CD at 222 nm on an Aviv Biomedical Model 420C circular dichroism spectrometer. A 1 mm quartz cuvette and protein concentrations of 5 or 10 μM were used. Samples were equilibrated in their urea or GdnHCl containing buffer at 25° Celsius overnight. CD-signal was averaged for 5 to 10 min using an integration time of 1 s. CD-spectra were measured at 20° Celsius using 0.1 or 1 mm quartz cells with a step width of 1 nm between 190 and 260 nm with an integration time of 20 s and a bandwidth of 1 nm. CD-spectra in the near UV range (260-360 nm) were recorded using a 5 cm quartz cell with a 120 s integration time. Transition curves and protein spectra were corrected for the CD Signal of the corresponding buffer.

[2] = Irreversible thermal denaturation by CD, intrinsic fluorescence and ANS fluorescence (Example 2); format: physicochemical; conditions: 2° Celsius/min
Procedure: The unfolding of disulfide-intact A1 and RCAM A1 was also monitored via CD at 222 nm, intrinsic protein fluorescence at 280 nm/359 nm and ANS fluorescence at 350 nm/495 nm as a function of temperature.
CD thermalscans were recorded between 10 and 95° Celsius at 222 nm with a protein concentration of 1 μM in a 1 cm quartz cell under moderate stirring. Prior to each measurement protein samples were equilibrated at 10° Celsius for 10-15 min in order to obtain a stable baseline. The scanrate for all Thermalscans was 2° Celsius/min. The integration time for each data point was 20 s, the bandwidth 1 nm. All measured CD data were converted into mean molar ellipticities per amino acid residue.
Thermalscans monitoring protein fluorescence were recorded at an emission wavelength of 359 nm after excitation at 280 nm using a protein concentration of 2 μM in a 1 cm quartz cell under moderate stirring. ANS-Thermalscans were recorded at 495 nm after Excitation at 350 nm using 1 μM protein and 100 μM ANS. Prior to any performed thermalscan samples were equilibrated for 10-15 min. The scanrate was 2° Celsius/min. At each temperature between 10 or 20° Celsius and 95° Celsius relative fluorescence intensity was collected for 4 s and averaged.

[3] = calculated from CD-spectra, CDNN

Shear rate at which platelets detach from the surface immobilized domain (platelet GPIbα; listed as A1): less than 300 s−1
Shear rate at which platelets detach from the surface immobilized domain (platelet GPIbα; listed as disulfide-intact A1): ≤ 300 s⁻¹
Mean platelet pause time (platelet GPIbα; shear rate 530 s−1): ~0.75 s
Mean platelet pause time (platelet GPIbα; shear rate 1025 s−1): ~0.9 s
Substance: A1-1238: Recombinant human vWF A1 domain, amino acids Q1238-P1471, with N-terminal 6×His-Tag, disulfide intact
% α-Helix [1, 3]: 38.0%
% β-sheet [1, 3]: 15.6%
% Remainder ([1]; β-turns and random coil structure): 46.4%
T* ([2]; ANS Fluorescence): 64.4 °C
ΔH* ([2]; ANS Fluorescence): 63.8 kcal/mol
T* ([2]; Circular Dichroism): 65 °C
ΔH* ([2]; Circular Dichroism): 65 kcal/mol
T* ([2]; Intrinsic Fluorescence): 63 °C
ΔH* ([2]; Intrinsic Fluorescence): 60.7 kcal/mol
